# Results reported in the supplement of paper PMC9112550, “Optimization of the antimicrobial peptide Bac7 by deep mutational scanning” (BMC Biology, 2022).
# System: Escherichia coli TOP10
# Assay: shrunken log2 fold change of peptide-encoding DNA abundance (4.5 h post-induction vs induction); higher = less antimicrobial activity (less host growth inhibition)
# Details: time post-induction: 4.5 h; library: site-saturation at positions 5, 18, 19, 20
# 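Note: peptides expressed intracellularly from a pBAD plasmid library in pooled LB shake-flask culture, induced with 0.3% L-arabinose, DNA abundance read by NGS, three biological replicates, DESeq2 with apeglm shrinkage.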
row,Sequence,shrunken log2 fold change
1,RRIRVRPPRLPRPRPRPLKWPRP,-0.235
2,RRIRERPPRLPRPRPRPEPTPRP,0.327
3,RRIRDRPPRLPRPRPRPDVCPRP,0.833
4,RRIRCRPPRLPRPRPRPFHHPRP,-0.00672
5,RRIRKRPPRLPRPRPRPFATPRP,0.45
6,RRIRRRPPRLPRPRPRPLGKPRP,-0.017
7,RRIRCRPPRLPRPRPRPHYCPRP,-0.342
8,RRIRQRPPRLPRPRPRPDRCPRP,0.298
9,RRIRTRPPRLPRPRPRPPMYPRP,-0.406
10,RRIRVRPPRLPRPRPRPQEIPRP,-0.0438
11,RRIRCRPPRLPRPRPRPACPPRP,-0.136
12,RRIRWRPPRLPRPRPRPDFDPRP,0.0791
13,RRIRTRPPRLPRPRPRPKVQPRP,-0.0279
14,RRIRRRPPRLPRPRPRPGASPRP,0.665
15,RRIRYRPPRLPRPRPRPKKSPRP,-0.298
16,RRIRHRPPRLPRPRPRPYTQPRP,-0.711
17,RRIRTRPPRLPRPRPRPKGCPRP,0.00952
18,RRIRHRPPRLPRPRPRPDATPRP,0.286
19,RRIRHRPPRLPRPRPRPWPIPRP,-0.00691
20,RRIRMRPPRLPRPRPRPYSHPRP,-0.352
21,RRIRQRPPRLPRPRPRPPPKPRP,0.876
22,RRIRCRPPRLPRPRPRPNKQPRP,-0.201
23,RRIRCRPPRLPRPRPRPAGHPRP,0.0641
24,RRIRQRPPRLPRPRPRPSSPPRP,0.167
25,RRIRGRPPRLPRPRPRPCRDPRP,0.128

row,Sequence,shrunken log2 fold change
1,RRIRPRPPRLPRPRPRPKFLPRP,0.0917
2,RRIRRRPPRLPRPRPRPEENPRP,0.157
3,RRIRIRPPRLPRPRPRPIFVPRP,-0.28
4,RRIRNRPPRLPRPRPRPEEAPRP,0.612
5,RRIRCRPPRLPRPRPRPYWTPRP,-0.966
6,RRIRKRPPRLPRPRPRPHWMPRP,0.0937
7,RRIRYRPPRLPRPRPRPFQHPRP,-0.281
8,RRIRDRPPRLPRPRPRPQGQPRP,0.000653
9,RRIRWRPPRLPRPRPRPDFIPRP,-0.395
10,RRIRTRPPRLPRPRPRPEHAPRP,-0.108
11,RRIRDRPPRLPRPRPRPSFYPRP,-0.128
12,RRIRHRPPRLPRPRPRPLYHPRP,-0.198
13,RRIRCRPPRLPRPRPRPAKGPRP,-0.179
14,RRIRFRPPRLPRPRPRPLLFPRP,-0.315
15,RRIRVRPPRLPRPRPRPIWAPRP,0.256
16,RRIRPRPPRLPRPRPRPQSDPRP,0.0199
17,RRIRERPPRLPRPRPRPHWDPRP,-0.00134
18,RRIRLRPPRLPRPRPRPNDAPRP,0.229
19,RRIRRRPPRLPRPRPRPRWEPRP,0.0983
20,RRIRCRPPRLPRPRPRPCRGPRP,-0.243
21,RRIRCRPPRLPRPRPRPQHSPRP,-0.764
22,RRIRPRPPRLPRPRPRPCMYPRP,-0.226
23,RRIRLRPPRLPRPRPRPWPGPRP,0.0987
24,RRIRDRPPRLPRPRPRPGGPPRP,0.247
25,RRIRNRPPRLPRPRPRPQLNPRP,-0.539

row,Sequence,shrunken log2 fold change
1,RRIRERPPRLPRPRPRPWRVPRP,-0.0327
2,RRIRHRPPRLPRPRPRPHDNPRP,-0.483
3,RRIRWRPPRLPRPRPRPLTVPRP,-0.0954
4,RRIRYRPPRLPRPRPRPYCQPRP,-0.465
5,RRIRSRPPRLPRPRPRPIAFPRP,-0.388
6,RRIRCRPPRLPRPRPRPMRRPRP,0.163
7,RRIRPRPPRLPRPRPRPHNFPRP,0.0735
8,RRIRPRPPRLPRPRPRPWTFPRP,-0.00547
9,RRIRIRPPRLPRPRPRPMRCPRP,-0.0263
10,RRIRMRPPRLPRPRPRPIYNPRP,-0.347
11,RRIRTRPPRLPRPRPRPPVLPRP,0.0185
12,RRIRTRPPRLPRPRPRPETTPRP,0.285
13,RRIRVRPPRLPRPRPRPTAEPRP,0.0994
14,RRIRVRPPRLPRPRPRPVSFPRP,-0.126
15,RRIRMRPPRLPRPRPRPNCGPRP,-0.216
16,RRIRYRPPRLPRPRPRPQNKPRP,-0.969
17,RRIRKRPPRLPRPRPRPCPMPRP,-0.15
18,RRIRSRPPRLPRPRPRPVWYPRP,0.154
19,RRIRVRPPRLPRPRPRPYMRPRP,0.162
20,RRIRFRPPRLPRPRPRPMMDPRP,0.0995
21,RRIRPRPPRLPRPRPRPNDAPRP,-0.025
22,RRIRWRPPRLPRPRPRPDQTPRP,-0.00176
23,RRIRTRPPRLPRPRPRPQLMPRP,-0.137
24,RRIRTRPPRLPRPRPRPVRSPRP,0.641
25,RRIRFRPPRLPRPRPRPFFYPRP,-0.308

row,Sequence,shrunken log2 fold change
1,RRIRIRPPRLPRPRPRPTKQPRP,-0.242
2,RRIRSRPPRLPRPRPRPTVFPRP,0.222
3,RRIRPRPPRLPRPRPRPCRSPRP,-0.136
4,RRIRFRPPRLPRPRPRPKPGPRP,0.446
5,RRIRNRPPRLPRPRPRPQIMPRP,-0.127
6,RRIRLRPPRLPRPRPRPSYAPRP,-0.134
7,RRIRMRPPRLPRPRPRPIRQPRP,-0.0521
8,RRIRQRPPRLPRPRPRPHICPRP,-0.049
9,RRIRVRPPRLPRPRPRPATEPRP,-0.0882
10,RRIRYRPPRLPRPRPRPLVRPRP,-0.0244
11,RRIRMRPPRLPRPRPRPIFCPRP,-0.0454
12,RRIRMRPPRLPRPRPRPFEFPRP,-0.044
13,RRIRHRPPRLPRPRPRPYRLPRP,-0.302
14,RRIRERPPRLPRPRPRPKTSPRP,-0.102
15,RRIRTRPPRLPRPRPRPTPSPRP,0.563
16,RRIRQRPPRLPRPRPRPEPAPRP,0.789
17,RRIRGRPPRLPRPRPRPNCRPRP,0.0979
18,RRIRERPPRLPRPRPRPWFKPRP,-0.0858
19,RRIRLRPPRLPRPRPRPLFWPRP,0.12
20,RRIRKRPPRLPRPRPRPAQSPRP,0.0619
21,RRIRWRPPRLPRPRPRPENRPRP,-0.0139
22,RRIRSRPPRLPRPRPRPYYIPRP,-0.461
23,RRIRRRPPRLPRPRPRPEHHPRP,0.202
24,RRIRFRPPRLPRPRPRPLDIPRP,-0.267
25,RRIRRRPPRLPRPRPRPAPIPRP,0.92

row,Sequence,shrunken log2 fold change
1,RRIRWRPPRLPRPRPRPRNGPRP,0.401
2,RRIRQRPPRLPRPRPRPQLRPRP,-0.165
3,RRIRQRPPRLPRPRPRPTTNPRP,-0.143
4,RRIRMRPPRLPRPRPRPSRFPRP,0.253
5,RRIRKRPPRLPRPRPRPPQRPRP,1.08
6,RRIRQRPPRLPRPRPRPASLPRP,-0.232
7,RRIRKRPPRLPRPRPRPAYEPRP,0.0198
8,RRIRRRPPRLPRPRPRPMYSPRP,-0.0989
9,RRIRIRPPRLPRPRPRPQHGPRP,-0.184
10,RRIRDRPPRLPRPRPRPDNQPRP,-0.105
11,RRIRWRPPRLPRPRPRPKTEPRP,0.111
12,RRIRLRPPRLPRPRPRPMHCPRP,-0.00782
13,RRIRPRPPRLPRPRPRPHRKPRP,-0.0741
14,RRIRDRPPRLPRPRPRPEIAPRP,1.31
15,RRIRIRPPRLPRPRPRPQGYPRP,-0.0157
16,RRIRDRPPRLPRPRPRPFGSPRP,0.0468
17,RRIRSRPPRLPRPRPRPWMFPRP,-0.0604
18,RRIRYRPPRLPRPRPRPWFGPRP,-0.0933
19,RRIRNRPPRLPRPRPRPEFTPRP,-0.161
20,RRIRYRPPRLPRPRPRPKLSPRP,-0.204
21,RRIRKRPPRLPRPRPRPFQMPRP,-0.28
22,RRIRNRPPRLPRPRPRPKYVPRP,-0.00968
23,RRIRPRPPRLPRPRPRPQACPRP,-0.0282
24,RRIRLRPPRLPRPRPRPVAYPRP,-0.438
25,RRIRIRPPRLPRPRPRPVMQPRP,-0.00187

row,Sequence,shrunken log2 fold change
1,RRIRRRPPRLPRPRPRPIHSPRP,0.0881
2,RRIRCRPPRLPRPRPRPCVDPRP,-0.164
3,RRIRVRPPRLPRPRPRPCSWPRP,-0.109
4,RRIRSRPPRLPRPRPRPMAGPRP,0.119
5,RRIRRRPPRLPRPRPRPIEVPRP,0.0048
6,RRIRTRPPRLPRPRPRPTGTPRP,-0.0721
7,RRIRARPPRLPRPRPRPPWKPRP,0.429
8,RRIRPRPPRLPRPRPRPINAPRP,-0.292
9,RRIRDRPPRLPRPRPRPHYCPRP,-0.0438
10,RRIRYRPPRLPRPRPRPWAEPRP,0.0276
11,RRIRCRPPRLPRPRPRPQNSPRP,-0.194
12,RRIRPRPPRLPRPRPRPDYCPRP,-0.367
13,RRIRNRPPRLPRPRPRPATKPRP,-0.0346
14,RRIRPRPPRLPRPRPRPCVPPRP,-0.134
15,RRIRERPPRLPRPRPRPDVRPRP,0.0184
16,RRIRYRPPRLPRPRPRPCVQPRP,-0.236
17,RRIRWRPPRLPRPRPRPEGCPRP,1.22
18,RRIRSRPPRLPRPRPRPTFQPRP,0.0282
19,RRIRQRPPRLPRPRPRPKISPRP,-0.144
20,RRIRARPPRLPRPRPRPCFKPRP,0.0174
21,RRIRWRPPRLPRPRPRPPMVPRP,0.104
22,RRIRTRPPRLPRPRPRPDAHPRP,0.128
23,RRIRFRPPRLPRPRPRPMNRPRP,-0.0364
24,RRIRWRPPRLPRPRPRPIPGPRP,0.0313
25,RRIRCRPPRLPRPRPRPCVLPRP,-0.7
